Changes are numbered by the printed parent chain.
T1: FcRL2, overexpressed on 3T3 cells (UniProt Q96LA5 20-508, limits assumed)
T1 construct: whole, on cells
T1 sequence (looked up): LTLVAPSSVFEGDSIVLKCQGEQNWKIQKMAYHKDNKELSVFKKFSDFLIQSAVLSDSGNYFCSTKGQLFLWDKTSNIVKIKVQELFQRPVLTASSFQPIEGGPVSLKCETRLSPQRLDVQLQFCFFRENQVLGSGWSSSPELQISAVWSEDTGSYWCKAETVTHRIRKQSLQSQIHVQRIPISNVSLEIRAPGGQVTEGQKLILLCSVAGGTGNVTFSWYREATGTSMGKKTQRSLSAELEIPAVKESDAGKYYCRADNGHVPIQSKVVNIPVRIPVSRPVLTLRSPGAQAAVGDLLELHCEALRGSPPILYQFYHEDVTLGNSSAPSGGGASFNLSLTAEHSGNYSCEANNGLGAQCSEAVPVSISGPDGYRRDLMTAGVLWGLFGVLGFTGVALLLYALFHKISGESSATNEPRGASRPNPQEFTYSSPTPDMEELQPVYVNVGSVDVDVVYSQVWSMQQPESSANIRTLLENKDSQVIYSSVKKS

T2: Fc Receptor-like 5 (FcRL5), full length, overexpressed on 3T3 or Raji cells (human, UniProt Q96RD9 16-977)
T2 construct: also called 3T3-FcRL5
T2 sequence: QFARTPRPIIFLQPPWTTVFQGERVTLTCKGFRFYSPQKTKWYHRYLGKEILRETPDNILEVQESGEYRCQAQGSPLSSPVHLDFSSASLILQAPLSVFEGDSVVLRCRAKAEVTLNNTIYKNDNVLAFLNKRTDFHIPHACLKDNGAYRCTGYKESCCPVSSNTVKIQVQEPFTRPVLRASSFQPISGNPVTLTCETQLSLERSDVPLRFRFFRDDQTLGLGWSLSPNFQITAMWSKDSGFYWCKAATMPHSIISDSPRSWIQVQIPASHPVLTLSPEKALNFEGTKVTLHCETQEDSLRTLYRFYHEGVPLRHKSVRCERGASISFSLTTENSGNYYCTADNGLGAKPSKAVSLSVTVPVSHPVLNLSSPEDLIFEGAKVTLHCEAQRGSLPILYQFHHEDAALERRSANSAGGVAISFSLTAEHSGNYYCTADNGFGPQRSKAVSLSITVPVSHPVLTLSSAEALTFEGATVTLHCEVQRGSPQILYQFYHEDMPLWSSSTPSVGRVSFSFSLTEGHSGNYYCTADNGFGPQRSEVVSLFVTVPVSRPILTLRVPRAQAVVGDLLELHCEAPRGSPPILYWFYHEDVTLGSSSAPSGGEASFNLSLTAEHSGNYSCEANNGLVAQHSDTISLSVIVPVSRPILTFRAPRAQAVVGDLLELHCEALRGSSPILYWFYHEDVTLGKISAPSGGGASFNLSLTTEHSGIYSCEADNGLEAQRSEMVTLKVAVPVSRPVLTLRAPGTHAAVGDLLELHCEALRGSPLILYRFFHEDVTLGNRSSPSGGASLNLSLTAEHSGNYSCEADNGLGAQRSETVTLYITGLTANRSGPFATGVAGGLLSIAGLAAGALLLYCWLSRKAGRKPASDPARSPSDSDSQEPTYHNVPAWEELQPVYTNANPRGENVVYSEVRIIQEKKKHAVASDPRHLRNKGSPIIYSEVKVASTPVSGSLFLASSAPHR

B1: ET200-033 (scFv)
scFv: NFMLTQPHSVSESPGKTVTISCTGSSGSIASNYVQWYQQRPGSAPTTVIYEDNQRPSGVPDRFSGSIDSSSNSASLTISGLKTEDEADYYCQSYDSSNHWVFGGGTKLTVLGSRGGGGSGGGGSGGGGSLEMAQVQLQQWGAGLLKPSETLSLTCAVYGGSFSGYYWSWIRQPPGKGLEWIGEITHSGRSNYNPSLKSRVTISVDTSKNQFSLKLSSVTAADTAVYYCARSSIMSDYWGQGTLVTVSSTSGQAGQHHHHHHGAYPYDVPDYAS
notes: screened as phage clone; entry is VL-linker-VH-His tag-HA tag
B2: ET200-029 (scFv)
scFv: QAVLTQPPSVSVAPGKTARVTCGGNNIGSESVHWYQQKPGQAPVLVIYYDTDRPSGIPERFSGSHSGTTATLTISRVEAGDEADYYCQVWDSSRDHVVFGGGTKLTVLGSRGGGGSGGGGSGGGGSLEMAQVQLVQSGGGVVQPGRSLRLSCAASGFTFSSYAMHWVRQAPGKGLEWVAVISYDGSNKYYADSVKGLFTISRDNSKNTLYLQMNSLRAEDTAVYYCARSYFTSGFYDYWGQGTLVTVSSTSGQAGQHHHHHHGAYPYDVPDYAS
notes: as for B1
B3: ET200-030 (scFv)
scFv: QSVVTQPPSVSGAPGQRVTISCTGSSSNIGAGYDVNWYQQFPGTAPKLLIYGNSNRPSGVPDRFSGSKSGTSASLAITGLQAEDEADYYCQSYDSSLSGSYVFGTGTKVTVLGSRGGGGSGGGGSGGGGSLEMAQMQLVQSGAEVKKPGASVKVSCKASGYTLTELSMHWVRQAPGKGLEWMGGFDPEDGETIYAQKFQGRVTMTEDTSTDTAYMELSSLRSEDTAVYYCARMSSMYYDWGQGTLVTVSSTSGQAGQHHHHHHGAYPYDVPDYAS
notes: as for B1
B4: ET200-028 (scFv)
scFv: QSVLTQPPAASGTPGQRVTISCSGGVSNIGSGALNWYQQLPGTAPKLLIYSYNQRPSGVSDRFSGSRSATSASLAISGLQSEDEADYYCATWDDSVNGWVFGGGTKLTVLGSRGGGGSGGGGSGGGGSLEMAQVQLVQSGAEVKKPGDSVKVSCKPSGYNFLNYGINWVRQAPGQGLEWMGWISTYTGNTNYAQKLQGRVTFTTDTSTSTAYMEMRSLRSDDTAVYYCARDLYYYEGVDYWGQGTLVTVSSTSGQAGQHHHHHHGAYPYDVPDYAS
notes: as for B1
B5: ET200-023 (scFv)
scFv: LPVLTQPPSVSVAPGKTARITCGGNNIGSKSVHWYQQKPGQAPVLVVYADSDRPSGIPERFSGSNSGNTATLTISRVEAGDEADYYCQVWDSSSYHNYVFGTGTKVTVLGSRGGGGSGGGGSGGGGSLEMAEVQLVQSGAEVKKPGASVKVSCKASGYTFTSYGISWVRQAPGQGLEWMGWISAYNGNTNYAQKLQGRVTMTTDTSTSTAYMELSSLRSEDTAMYYCARYWGFGVSDRWGQGTLVTVSSTSGQAGQHHHHHHGAYPYDVPDYAS
notes: as for B1
B6: ET200-039 (scFv)
scFv: NFMLTQPHSVSESPGKTVTISCTRSSGSIASNYVQWYQQRPGSSPTTVIYEDNQRPSGVPDRFSGSIDSSSNSASLTISGLKTEDEADYYCQSYDSSNWVFGGGTKLTVLGSRGGGGSGGGGSGGGGSLEMAEVQLVQSGAEVKKPGSSVKVSCKASGGTFSSYAISWVRQAPGQGLEWMGGIIPIFGTANYAQKFQGRVTITADESTSTAYMELSSLRSEDTAVYYCARSNYYYNDYWGQGTLVTVSSTSGQAGQHHHHHHGAYPYDVPDYAS
notes: screened as phage clone; entry is VL-linker-VH-His tag-HA tag; also called ET200-39
B7: ET200-026 (scFv)
scFv: B6 scFv with R24G, S44A, S231N, Y233H
notes: as for B1
B8: ET200-035 (scFv)
scFv: B6 scFv with S44A, S97T, E133Q, S231Y, Y235F
notes: as for B1
B9: ET200-002 (scFv)
scFv: NFMLTQPHSVSESPGKTVTISCTRSSGSIASNYVQWYQQRPGSAPTTVIYEDNQRPSGVPDRFSGSIDSSSNSASLTISGLKTEDEADYYCQSYDSSNSVVFGGGTKLTVLGSRGGGGSGGGGSGGGGSLEMAQVQLVQSGTEVKKPGASVRVACKASGYPFNKYDINWVRQAPGQGLEWMGGIIPIFRTTNYAQKFQGRVTITADESTSTAYMELSSLRSEDTAVYYCAREWFYWDIWGQGTLVTVSSTSGQAGQHHHHHHGAYPYDVPDYAS
notes: as for B1
B10: ET200-032 (scFv)
scFv: LPVLTQPPSASGTPGQRVTISCSGSSSNVGSYTVNWYRQLPGTAPTLLIYNNNQRPSGVPDRFSDSKSGTSASLTISGLQPEDEADYYCAAWDDRLGGYVFGTGTKVTVLGSRGGGGSGGGGSGGGGSLEMAEVQLVQSGAEVKKPGESLKISCKGSGYSFTNYWIGWVRQMPGKGLEWMGIIYPGDSDTRYSPSFQGQVTISADKSISTAYLQWSSLKASDTAMYYCARSTGSSHMSDEWGQGTLVTVSSTSGQAGQHHHHHHGAYPYDVPDYAS
notes: as for B1
B11: ET200-027 (scFv)
scFv: QSVLTQPPSVSGAPGQGVTIPCTGSSSNIGAGYDVHWYQQLPGTAPKLLIYGNNNRPSGVPDRFSGSRSGSSASLAITGLQAEDEADYYCQSYDSSLSDVVFGGGTKVTVLGSRGGGGSGGGGSGGGGSLEMAEVQLVQSGAEVKKPGATVKISCKVSGYTFTDYYMHWVQQAPGKGLEWMGLVDPEDGETIYAEKFQGRVTITADTSTDTAYMELSSLRSEDTAVYYCARYWSYSFDYLYMPEGNDWWGQGTLVTVSSTSGQAGQHHHHHHGAYPYDVPDYAS
notes: as for B1
B12: ET200-034 (scFv)
scFv: QSVLTQPPSVSGAPGQRVTISCTGSTSNIGAGYDVHWYQQLPGTAPKLLINNNRNRPSGVPDRFSGSKSGTSATLGITGLQTGDEADYYCGTWDGSLTGAVFGGGTKLTVLGSRGGGGSGGGGSGGGGSLEMAEVQLVQSGAEVKKPGSSVKVSCKASGGTFSSYAISWVRQAPGQGLEWMGGIIPIFGTANYAQKFQGRVTITADESTSTAYMELSSLRSEDTAVYYCARGSALDHYDRWGQGTLVTVSSTSGQAGQHHHHHHGAYPYDVPDYAS
notes: as for B1
B13: ET200-031 (scFv)
scFv: SYVLTQPPSVSVAPGKTARITCGGNNIGSKSVHWYQQKPGQAPVLVIYYDSDRPSGIPERFSGSNSGNTATLTISRVEAGDEADYYCQVWDSSSDYVFGTGTKVTVLGSRGGGGSGGGGSGGGGSLEMAEVQLVETGGGLVKPGGSLRLSCAASGFTVSDYYMSWIRQAPGKGLEWISYISGSGNSIYYADSVKGRFTISRDNAKNSLDLQMTSLRAEDTAVYYCARSTKFDYWGQGTLVTVSSTSGQAGQHHHHHHGAYPYDVPDYAS
notes: screened as phage clone; entry is VL-linker-VH-His tag-HA tag; also called ET200-31

How the values were obtained:
[1] = target: SLAMF9 protein (UniProt Q96A28 19-236, limits assumed); assay: phage clone on SLAMF9 protein
Sequence of SLAMF9 protein (Q96A28 19-236 limits assumed): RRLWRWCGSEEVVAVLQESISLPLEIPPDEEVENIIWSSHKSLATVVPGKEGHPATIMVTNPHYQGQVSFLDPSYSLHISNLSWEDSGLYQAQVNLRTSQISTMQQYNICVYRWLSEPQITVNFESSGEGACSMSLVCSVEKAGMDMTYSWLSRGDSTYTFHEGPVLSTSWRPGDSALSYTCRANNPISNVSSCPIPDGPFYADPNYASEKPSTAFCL

[2] = target: T1, FcRL2, overexpressed on 3T3 cells; assay: phage clone on 3T3-FcRL2 cells
[3] = target: T2, Fc Receptor-like 5 (FcRL5), full …; assay: phage clone screening on cells
Protocol: Once selected, positive scFv clones are further tested for their binding to FcRL5 (e.g., human FcRL5) on live 3T3 cell surfaces by flow cytometry. Briefly, phage clones are incubated with 3T3 cells over-expressing FcRL5. The cells are washed and then incubated with a mouse anti-M13 coat protein mAb. Cells are washed again and labeled with a PE-horse anti-mouse Ig prior to flow cytometry.
Phage′ display against FcRL5 was performed to enrich for scFv phage clones that bind to FcRL5 specifically. Screening was carried out on FcRL5 overexpressing 3T3 cells or 3T3 cells expressing FcRL1, 2, 3, 4 or 6 as a negative control (FIG. 2).

Binder	binding result [1]	binding result [2]	binding result [3]
B1	no binding	no binding	binds
B2	no binding	no binding	binds
B3	no binding	no binding	binds
B4	no binding	no binding	binds
B5	no binding	no binding	binds
B6	no binding	no binding	binds
B7	no binding	no binding	binds
B8	no binding	no binding	binds
B9	no binding	no binding	binds
B10	no binding	no binding	binds
B11	no binding	no binding	binds
B12	no binding	no binding	binds
B13	no binding	no binding	binds
